Measured values as given in PMC5714350.

Columns and labels:
Conditions in all cases: other: dynamic light scattering
[1] = dynamic light scattering; FXN^81-210 with ferric iron (FeCl3 in HEPES pH 7.5), Fe3+:protein 6:1, 8:1, 10:1
[2] = dynamic light scattering; FXN^81-210 with Fe2+ 6:1 for 15 min, then chelator (deferiprone, DFO or BIPY) at 3 times the amount of iron; room temperature
[3] = dynamic light scattering; FXN^81-210 2.5 mg/ml (0.17 mM) with ammonium iron (II) sulfate, aerobic, Fe2+:protein 2:1, 4:1, 5:1, 6:1, 10:1; room temperature; profiles every 5 min for 2 h; volume distribution

## Human frataxin isoform 81–210 (FXN^81-210)
[1]
  % of particles in the monomer range (hydrodynamic radius 1.6–3 nm), with iron (Fe3+ 6:1): 97%
  % of particles with hydrodynamic radius 6–8.5 nm (oligomers), with iron (Fe3+ 8:1): 84.4%
  % of particles with hydrodynamic radius 8.5–14 nm (oligomers), with iron (Fe3+ 6:1): 3%
  % of particles with hydrodynamic radius 8.5–14 nm (oligomers), with iron (Fe3+ 10:1): 86.8%
  % of particles with hydrodynamic radius 15–25 nm (oligomers), with iron (Fe3+ 8:1): 15.6%
[2]
  % of particles in the monomer range (hydrodynamic radius 1.6–2.1 nm), with iron (Fe2+ 6:1) and BIPY: 92%
  % of particles in the monomer range (hydrodynamic radius 1.6–2.1 nm), with iron (Fe2+ 6:1) and deferiprone: 97%
  % of particles with hydrodynamic radius 6–8.5 nm (oligomers), with iron (Fe2+ 6:1) and BIPY: 8%
  % of particles with hydrodynamic radius 6–8.5 nm (oligomers), with iron (Fe2+ 6:1) and DFO: 95%
  % of particles with hydrodynamic radius 8.5–14 nm (oligomers), with iron (Fe2+ 6:1) and deferiprone: 3%
  % of particles with hydrodynamic radius 15–25 nm (oligomers), with iron (Fe2+ 6:1) and DFO: 5%
[3]
  % of particles in the monomer range (hydrodynamic radius 1.6–2.1 nm), with iron (Fe2+ 6:1): 92%
  % of particles with hydrodynamic radius 6–8.5 nm (oligomers), with iron (Fe2+ 6:1): 8%
  % of particles with mean hydrodynamic radius of about 5 nm (oligomers), with iron (Fe2+ 10:1, 60 min): The major fraction of the oligomers (88%)
